Assay results reported in article PMC8420576 (The EMBO Journal, 2021).

Molecular target: T1, SARS-CoV-2 Spike RBD (residues 334–527), C-terminal Avi-His6 tag, biotinylated (SARS-CoV-2, reference (Wuhan-Hu-1) …, UniProt P0DTC2, biotin on the Avi-tag)
T1 construct: also called biotinylated RBD; SARS‐CoV‐2 RBD‐loaded sensors
Assay: BLI
Details: both partners purified

B1: VHH antibody Re9F06 (VHH)
VHH: QVQLVESGGGLVQAGGSLRLSCAASGRTFSNDALGWFRQAPRKEREFVAAINWNSGTYYADSVKGRFTISRDNAKNTVYLQMNSLKPEDTAVYSCAAASDYGLPREDFLYDYWGQGTQVTVSS
notes: also called fold-promoter Re9F06; fold-promoting nanobody Re9F06
B1 showed a Kd of 4 nM.
